Data from IntAct's records for PubMed 31515488.

B1: Hypoxia-inducible factor 1-alpha inhibitor (Homo sapiens), Q9NWT6 (parent)
chain: MAATAAEAVASGSGEPREEAGALGPAWDESQLRSYSFPTRPIPRLSQSDPRAEELIENEEPVVLTDTNLVYPALKWDLEYLQENIGNGDFSVYSASTHKFLYYDEKKMANFQNFKPRSNREEMKFHEFVEKLQDIQQRGGEERLYLQQTLNDTVGRKIVMDFLGFNWNWINKQQGKRGWGQLTSNLLLIGMEGNVTPAHYDEQQNFFAQIKGYKRCILFPPDQFECLYPYPVHHPCDRQSQVDFDNPDYERFPNFQNVVGYETVVGPGDVLYIPMYWWHHIESLLNGGITITVNFWYKGAPTPKRIEYPLKAHQKVAIMRNIEKMLGEALGNPQEVGPLLNTMIKGRYN
partner: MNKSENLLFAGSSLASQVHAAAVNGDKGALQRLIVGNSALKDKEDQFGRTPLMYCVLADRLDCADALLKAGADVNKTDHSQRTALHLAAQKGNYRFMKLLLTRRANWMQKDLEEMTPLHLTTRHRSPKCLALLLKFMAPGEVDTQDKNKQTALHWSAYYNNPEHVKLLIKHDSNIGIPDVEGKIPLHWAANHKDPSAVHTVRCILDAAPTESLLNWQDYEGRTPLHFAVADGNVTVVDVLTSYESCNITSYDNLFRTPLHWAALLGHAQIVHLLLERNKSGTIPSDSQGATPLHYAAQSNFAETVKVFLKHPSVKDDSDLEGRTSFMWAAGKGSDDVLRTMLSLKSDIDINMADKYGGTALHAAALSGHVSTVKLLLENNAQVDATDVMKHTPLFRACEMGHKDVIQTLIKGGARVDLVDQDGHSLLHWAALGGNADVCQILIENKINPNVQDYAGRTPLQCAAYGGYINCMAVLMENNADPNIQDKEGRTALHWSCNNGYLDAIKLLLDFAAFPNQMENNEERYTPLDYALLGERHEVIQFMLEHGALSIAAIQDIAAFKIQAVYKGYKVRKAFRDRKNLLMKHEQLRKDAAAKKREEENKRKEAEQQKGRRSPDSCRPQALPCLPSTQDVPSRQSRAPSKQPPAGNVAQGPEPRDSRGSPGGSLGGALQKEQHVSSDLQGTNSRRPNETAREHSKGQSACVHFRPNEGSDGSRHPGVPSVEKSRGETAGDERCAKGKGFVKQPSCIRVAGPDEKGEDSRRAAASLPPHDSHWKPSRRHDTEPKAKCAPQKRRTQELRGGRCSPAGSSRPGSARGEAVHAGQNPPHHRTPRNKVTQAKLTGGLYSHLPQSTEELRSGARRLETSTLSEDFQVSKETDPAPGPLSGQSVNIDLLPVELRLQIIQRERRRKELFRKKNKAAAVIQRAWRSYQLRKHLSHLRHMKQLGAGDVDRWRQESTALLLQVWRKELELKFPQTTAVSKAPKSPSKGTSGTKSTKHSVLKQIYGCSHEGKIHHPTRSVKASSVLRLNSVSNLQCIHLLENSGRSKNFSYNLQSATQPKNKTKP
B2: Low-density lipoprotein receptor class A domain-containing protein 1 (Homo sapiens), Q5T700 (parent)
chain: MNKVFPQGENGYTAAESKAHPGGEAGGGHLCCSRRGACLSASLLLLLATVAALIALVTILGLPSCTPGAQACITLTNRTGFLCHDQRSCIPASGVCDGVRTCTHGEDEDESLCRDVPQSLPHFLVAHCGDPASWIYSDQKCDGTNNCGDCSDELSPVTVCPPCGPGWWRCPSTFFKYCDCIPRHLCRDHVQHCSDWSDEYACPGP
partner: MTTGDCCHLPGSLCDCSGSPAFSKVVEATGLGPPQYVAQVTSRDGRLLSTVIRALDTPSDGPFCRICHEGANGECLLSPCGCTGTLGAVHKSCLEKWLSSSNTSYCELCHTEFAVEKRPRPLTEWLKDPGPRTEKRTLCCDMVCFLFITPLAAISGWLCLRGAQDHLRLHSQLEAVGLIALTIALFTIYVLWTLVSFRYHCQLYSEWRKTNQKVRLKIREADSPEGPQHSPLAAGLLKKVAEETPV
B3: Macrophage scavenger receptor types I and II (Homo sapiens), P21757 (parent)
chain: MEQWDHFHNQQEDTDSCSESVKFDARSMTALLPPNPKNSPSLQEKLKSFKAALIALYLLVFAVLIPLIGIVAAQLLKWETKNCSVSSTNANDITQSLTGKGNDSEEEMRFQEVFMEHMSNMEKRIQHILDMEANLMDTEHFQNFSMTTDQRFNDILLQLSTLFSSVQGHGNAIDEISKSLISLNTTLLDLQLNIENLNGKIQENTFKQQEEISKLEERVYNVSAEIMAMKEEQVHLEQEIKGEVKVLNNITNDLRLKDWEHSQTLRNITLIQGPPGPPGEKGDRGPTGESGPRGFPGPIGPPGLKGDRGAIGFPGSRGLPGYAGRPGNSGPKGQKGEKGSGNTLTPFTKVRLVGGSGPHEGRVEILHSGQWGTICDDRWEVRVGQVVCRSLGYPGVQAVHKAAHFGQGTGPIWLNEVFCFGRESSIEECKIRQWGTRACSHSEDAGVTCTL
partner: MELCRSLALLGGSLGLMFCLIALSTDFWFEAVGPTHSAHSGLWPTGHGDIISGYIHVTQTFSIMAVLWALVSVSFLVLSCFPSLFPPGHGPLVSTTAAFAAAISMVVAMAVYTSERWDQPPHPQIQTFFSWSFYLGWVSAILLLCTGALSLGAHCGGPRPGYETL
B4: Antiviral innate immune response effector IFIT1 (Homo sapiens), P09914 (parent)
chain: MSTNGDDHQVKDSLEQLRCHFTWELSIDDDEMPDLENRVLDQIEFLDTKYSVGIHNLLAYVKHLKGQNEEALKSLKEAENLMQEEHDNQANVRSLVTWGNFAWMYYHMGRLAEAQTYLDKVENICKKLSNPFRYRMECPEIDCEEGWALLKCGGKNYERAKACFEKVLEVDPENPESSAGYAISAYRLDGFKLATKNHKPFSLLPLRQAVRLNPDNGYIKVLLALKLQDEGQEAEGEKYIEEALANMSSQTYVFRYAAKFYRRKGSVDKALELLKKALQETPTSVLLHHQIGLCYKAQMIQIKEATKGQPRGQNREKLDKMIRSAIFHFESAVEKKPTFEVAHLDLARMYIEAGNHRKAEENFQKLLCMKPVVEETMQDIHFHYGRFQEFQKKSDVNAIIHYLKAIKIEQASLTRDKSINSLKKLVLRKLRRKALDLESLSLLGFVYKLEGNMNEALEYYERALRLAADFENSVRQGP
partner: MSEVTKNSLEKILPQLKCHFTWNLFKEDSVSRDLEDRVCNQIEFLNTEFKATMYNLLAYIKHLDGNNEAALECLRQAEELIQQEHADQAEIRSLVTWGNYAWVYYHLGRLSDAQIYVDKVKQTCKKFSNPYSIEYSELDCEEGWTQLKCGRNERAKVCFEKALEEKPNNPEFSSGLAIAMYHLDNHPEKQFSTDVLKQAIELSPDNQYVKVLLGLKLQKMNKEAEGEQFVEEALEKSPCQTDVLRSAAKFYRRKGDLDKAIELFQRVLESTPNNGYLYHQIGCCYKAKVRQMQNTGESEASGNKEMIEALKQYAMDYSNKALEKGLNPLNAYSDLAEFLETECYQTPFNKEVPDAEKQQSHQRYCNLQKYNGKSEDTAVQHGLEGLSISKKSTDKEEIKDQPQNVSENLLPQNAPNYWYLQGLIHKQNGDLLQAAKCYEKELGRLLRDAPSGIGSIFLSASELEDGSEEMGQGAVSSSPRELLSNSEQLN
B5: Cyclic AMP-responsive element-binding protein 3-like protein 1 (Homo sapiens), Q96BA8 (parent)
chain: MDAVLEPFPADRLFPGSSFLDLGDLNESDFLNNAHFPEHLDHFTENMEDFSNDLFSSFFDDPVLDEKSPLLDMELDSPTPGIQAEHSYSLSGDSAPQSPLVPIKMEDTTQDAEHGAWALGHKLCSIMVKQEQSPELPVDPLAAPSAMAAAAAMATTPLLGLSPLSRLPIPHQAPGEMTQLPVIKAEPLEVNQFLKVTPEDLVQMPPTPPSSHGSDSDGSQSPRSLPPSSPVRPMARSSTAISTSPLLTAPHKLQGTSGPLLLTEEEKRTLIAEGYPIPTKLPLTKAEEKALKRVRRKIKNKISAQESRRKKKEYVECLEKKVETFTSENNELWKKVETLENANRTLLQQLQKLQTLVTNKISRPYKMAATQTGTCLMVAALCFVLVLGSLVPCLPEFSSGSQTVKEDPLAADGVYTASQMPSRSLLFYDDGAGLWEDGRSTLLPMEPPDGWEINPGGPAEQRPRDHLQHDHLDSTHETTKYLSEAWPKDGGNGTSPDFSHSKEWFHDRDLGPNTTIKLS
partner: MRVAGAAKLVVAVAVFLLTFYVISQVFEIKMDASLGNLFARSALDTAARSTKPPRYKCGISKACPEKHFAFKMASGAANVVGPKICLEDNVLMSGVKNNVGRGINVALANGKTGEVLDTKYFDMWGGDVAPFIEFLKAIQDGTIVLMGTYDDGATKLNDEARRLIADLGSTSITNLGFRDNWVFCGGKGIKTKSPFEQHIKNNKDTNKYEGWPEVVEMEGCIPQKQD
B6: Copper homeostasis protein cutC homolog (Homo sapiens), Q9NTM9 (parent)
chain: MKRQGASSERKRARIPSGKAGAANGFLMEVCVDSVESAVNAERGGADRIELCSGLSEGGTTPSMGVLQVVKQSVQIPVFVMIRPRGGDFLYSDREIEVMKADIRLAKLYGADGLVFGALTEDGHIDKELCMSLMAICRPLPVTFHRAFDMVHDPMAALETLLTLGFERVLTSGCDSSALEGLPLIKRLIEQAKGRIVVMPGGGITDRNLQRILEGSGATEFHCSARSTRDSGMKFRNSSVAMGASLSCSEYSLKVTDVTKVRTLNAIAKNILV
partner: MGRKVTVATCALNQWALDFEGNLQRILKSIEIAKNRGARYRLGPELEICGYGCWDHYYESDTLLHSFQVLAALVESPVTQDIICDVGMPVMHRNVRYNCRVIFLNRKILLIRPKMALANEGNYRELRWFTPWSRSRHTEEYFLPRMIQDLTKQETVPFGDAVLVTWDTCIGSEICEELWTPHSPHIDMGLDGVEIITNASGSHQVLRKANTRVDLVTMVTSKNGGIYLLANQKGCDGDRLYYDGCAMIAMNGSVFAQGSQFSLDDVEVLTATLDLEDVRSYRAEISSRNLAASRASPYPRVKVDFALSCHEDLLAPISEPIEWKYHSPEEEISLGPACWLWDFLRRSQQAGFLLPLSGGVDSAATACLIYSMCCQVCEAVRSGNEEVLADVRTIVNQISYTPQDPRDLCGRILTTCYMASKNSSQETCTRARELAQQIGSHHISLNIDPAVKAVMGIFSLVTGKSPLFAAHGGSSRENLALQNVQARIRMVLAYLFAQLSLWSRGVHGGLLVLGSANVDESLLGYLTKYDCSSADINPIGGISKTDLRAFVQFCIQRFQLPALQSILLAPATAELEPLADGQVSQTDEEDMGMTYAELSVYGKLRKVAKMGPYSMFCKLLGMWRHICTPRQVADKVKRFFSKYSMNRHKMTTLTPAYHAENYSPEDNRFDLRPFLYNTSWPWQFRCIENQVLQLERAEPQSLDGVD
B7: U3 small nucleolar RNA-associated protein 14 homolog C (Homo sapiens), Q5TAP6 (parent)
chain: MNVNQVAENLALSHQEELVDLPKNYPLSENEDEGDSDGERKHQKLLEAIISLDGKNRRKLAERSEASLKVSEFSVSSEGSGEKLGLADLLEPVKTSSSLATVKKQLNRVKSKKVVELPLNKEKIEQIHREVAFSKTSQVLSKWDPIILKNQQAEQLVFPLGKEQPAIAPIEHALSGWKARTPLEQEIFNLLHKNKQPVTDPLLTPMEKASLQAMSLEEAKMHRAELQRARALQSYYEAKARKEKKIKSKKYHKVVKKGKAKKALKEFEQLQKVNPTVALEEMEKIENARMMERMSLKHQNSGKWAKSKAIMAKYDLEARQAMQEQLAKNKELTQKLQVASESEEEEGGTEVEELLVPHVANEVQMNVDGPNPWMFRSCTSDTKEAATQEDPEQVPELAAHEVSASEAEERPVAEEEILLREFEERQSLRKRSELNQDAEPASSQETKDSSSQEVLSELRALSQKLKEKHQSRKQKASSEGTVPQVQREEPAPEEAEPLLLQRSERVQTLEELEELGKEDCFQNKELPRPVLEGQQSERTPNNRPDAPKEKKEKEQLINLQNFLTTQSPSVRSLAVPTIIEELEDEEERDQRQMIKEAFAGDDVIRDFLKEKREAVEASKPKDVDLTLPGWGEWGGVGLKPSAKKRRQFLIKAPEGPPRKDKNLPNVIISEKRNIHAAAHQVQVLPYPFTHHRQFERTIQTPIGSTWNTQRAFQKLTTPKVVTKPGHIIKPIKAEDVGYQSSSRSDLPVIQRNPKRITTRHNKEEKL

Variants of: B1
Conditions: with invs_human INVS

Row | Variant | effect of a mutation on the interaction
1 | P41A | with no effect

Variants of: B2
Conditions: with marh2_human MARCHF2, Q9P0N8

Row | Variant | effect of a mutation on the interaction
2 | E108K | with no effect

Variants of: B3
Conditions: with nkg7_human NKG7, Q16617

Row | Variant | effect of a mutation on the interaction
3 | P275A | with no effect
4 | P346L | with no effect
5 | V113A | with no effect

Variants of: B4
Conditions: with ifit3_human IFIT3, O14879

Row | Variant | effect of a mutation on the interaction
6 | A162T | with no effect
7 | M453T | with no effect

Variants of: B5
Conditions: with fam3c_human FAM3C

Row | Variant | effect of a mutation on the interaction
8 | I516S | with no effect
9 | A152T | with no effect

Variants of: B6
Conditions: with nade_human NADSYN1, Q6IA69

Row | Variant | effect of a mutation on the interaction
10 | P77L | disrupting interaction strength

Variants of: B7
Conditions: with myome_human PDE4DIP

Row | Variant | effect of a mutation on the interaction
11 | V109D | with no effect
